Reference: patent publication US20230002480A1

Key:
Test in all cases: cell-based or functional assay
[1] = molecular target: HIV-1 Env of pseudovirus ZM135M.PL10a (HIV-1)
[2] = molecular target: HIV-1 Env of pseudovirus SC05_8C11_2344 (HIV-1)
[3] = molecular target: HIV-1 Env of pseudovirus CNE20 (HIV-1)
[4] = molecular target: HIV-1 Env of pseudovirus 928-28 (HIV-1)
[5] = molecular target: HIV-1 Env of pseudovirus 6244_13_B5_4576 (HIV-1)
[6] = molecular target: HIV-1 Env of pseudovirus Du422.1 (HIV-1)
[7] = molecular target: HIV-1 Env of pseudovirus ZM249M.PL1 (HIV-1)
[8] = molecular target: HIV-1 Env of pseudovirus 1394C9G1(Rev-) (HIV-1)
[9] = molecular target: HIV-1 Env of pseudovirus 1006_11_C3_1601 (HIV-1)
[10] = molecular target: HIV-1 Env of pseudovirus WITO4160.33 (HIV-1)
[11] = molecular target: HIV-1 Env of pseudovirus T257-31 (HIV-1)
[12] = molecular target: HIV-1 Env of pseudovirus Q769.d22 (HIV-1)
[13] = molecular target: HIV-1 Env of pseudovirus 263-8 (HIV-1)
[14] = molecular target: HIV-1 Env of pseudovirus QH0692.42 (HIV-1)
[15] = molecular target: HIV-1 Env of pseudovirus ZM214M.PL15 (HIV-1)
[16] = molecular target: HIV-1 Env of pseudovirus MS208.A1 (HIV-1)
[17] = molecular target: HIV-1 Env of pseudovirus PVO.4 (HIV-1)
[18] = molecular target: HIV-1 Env of pseudovirus Ce2060_G9 (HIV-1)
[19] = molecular target: HIV-1 Env of pseudovirus CNE30 (HIV-1)
[20] = molecular target: HIV-1 Env of pseudovirus TRJO4551.58 (HIV-1)
[21] = molecular target: HIV-1 Env of pseudovirus 9004SS_A3_4 (HIV-1)
[22] = molecular target: HIV-1 Env of pseudovirus ZM197M.PB7 (HIV-1)
[23] = molecular target: HIV-1 Env of pseudovirus BF1266.431a (HIV-1)

For PG16 (antibody), the IC50, titer in TZM.bl cells [1] was > 50 µg/mL, the IC80, titer in TZM.bl cells [1] was > 50 µg/mL and the IC50, titer in TZM.bl cells [2] was 0.07 µg/mL. The IC80, titer in TZM.bl cells [2] was 1.62 µg/mL, the IC50, titer in TZM.bl cells [3] was 3.63 µg/mL and the IC80, titer in TZM.bl cells [3] was 47.2 µg/mL. The IC50, titer in TZM.bl cells [4] was 0.034 µg/mL, the IC80, titer in TZM.bl cells [4] was 0.237 µg/mL and the IC50, titer in TZM.bl cells [5] was > 50 µg/mL. For the same substance, the IC80, titer in TZM.bl cells [5] was > 50 µg/mL, the IC50, titer in TZM.bl cells [6] was 0.261 µg/mL and the IC80, titer in TZM.bl cells [6] was 33.8 µg/mL. It also gave an IC50, titer in TZM.bl cells [7] of 0.127 µg/mL, an IC80, titer in TZM.bl cells [7] of 18.1 µg/mL and an IC50, titer in TZM.bl cells [8] of 0.008 µg/mL. The IC80, titer in TZM.bl cells [8] was 0.056 µg/mL, the IC50, titer in TZM.bl cells [9] was > 50 µg/mL and the IC80, titer in TZM.bl cells [9] was > 50 µg/mL. It also gave an IC50, titer in TZM.bl cells [10] of 0.002 µg/mL, an IC80, titer in TZM.bl cells [10] of 0.012 µg/mL and an IC50, titer in TZM.bl cells [11] of 0.007 µg/mL. For the same substance, the IC80, titer in TZM.bl cells [11] was 0.021 µg/mL, the IC50, titer in TZM.bl cells [12] was 0.005 µg/mL and the IC80, titer in TZM.bl cells [12] was 0.018 µg/mL. The IC50, titer in TZM.bl cells [13] was 0.347 µg/mL, the IC80, titer in TZM.bl cells [13] was 4.97 µg/mL and the IC50, titer in TZM.bl cells [14] was > 50 µg/mL. For the same substance, the IC80, titer in TZM.bl cells [14] was > 50 µg/mL, the IC50, titer in TZM.bl cells [15] was > 50 µg/mL and the IC80, titer in TZM.bl cells [15] was > 50 µg/mL. The IC50, titer in TZM.bl cells [16] was 0.002 µg/mL, the IC80, titer in TZM.bl cells [16] was 0.004 µg/mL and the IC50, titer in TZM.bl cells [17] was 15.3 µg/mL. The IC80, titer in TZM.bl cells [17] was > 50 µg/mL, the IC50, titer in TZM.bl cells [18] was 0.075 µg/mL and the IC80, titer in TZM.bl cells [18] was 1.71 µg/mL. The IC50, titer in TZM.bl cells [19] was > 50 µg/mL, the IC80, titer in TZM.bl cells [19] was > 50 µg/mL and the IC50, titer in TZM.bl cells [20] was 1.01 µg/mL. For the same substance, the IC80, titer in TZM.bl cells [20] was 24.5 µg/mL, the IC50, titer in TZM.bl cells [21] was 0.02 µg/mL and the IC80, titer in TZM.bl cells [21] was 0.111 µg/mL. For the same substance, the IC50, titer in TZM.bl cells [22] was 1.5 µg/mL, the IC80, titer in TZM.bl cells [22] was 22.8 µg/mL and the IC50, titer in TZM.bl cells [23] was 0.003 µg/mL. For the same substance, the IC80, titer in TZM.bl cells [23] was 0.009 µg/mL.
Work on 10E8 (antibody) yielded an IC50, titer in TZM.bl cells [1] of 0.171 µg/mL, an IC80, titer in TZM.bl cells [1] of 1.19 µg/mL and an IC50, titer in TZM.bl cells [2] of 0.665 µg/mL. For the same substance, the IC80, titer in TZM.bl cells [2] was 2.74 µg/mL, the IC50, titer in TZM.bl cells [3] was 1.25 µg/mL and the IC80, titer in TZM.bl cells [3] was 6.58 µg/mL. For the same substance, the IC50, titer in TZM.bl cells [4] was 0.384 µg/mL, the IC80, titer in TZM.bl cells [4] was 1.96 µg/mL and the IC50, titer in TZM.bl cells [5] was 0.086 µg/mL. The IC80, titer in TZM.bl cells [5] was 0.809 µg/mL, the IC50, titer in TZM.bl cells [6] was 0.351 µg/mL and the IC80, titer in TZM.bl cells [6] was 1.88 µg/mL. It also gave an IC50, titer in TZM.bl cells [7] of 1.51 µg/mL, an IC80, titer in TZM.bl cells [7] of 6.29 µg/mL and an IC50, titer in TZM.bl cells [8] of 0.963 µg/mL. For the same substance, the IC80, titer in TZM.bl cells [8] was 5.33 µg/mL, the IC50, titer in TZM.bl cells [9] was 0.172 µg/mL and the IC80, titer in TZM.bl cells [9] was 3 µg/mL. The IC50, titer in TZM.bl cells [10] was 0.094 µg/mL, the IC80, titer in TZM.bl cells [10] was 1.23 µg/mL and the IC50, titer in TZM.bl cells [11] was 0.88 µg/mL. For the same substance, the IC80, titer in TZM.bl cells [11] was 5.78 µg/mL, the IC50, titer in TZM.bl cells [12] was 1.67 µg/mL and the IC80, titer in TZM.bl cells [12] was 10 µg/mL. It also gave an IC50, titer in TZM.bl cells [13] of 0.196 µg/mL, an IC80, titer in TZM.bl cells [13] of 1.73 µg/mL and an IC50, titer in TZM.bl cells [14] of 0.442 µg/mL. The IC80, titer in TZM.bl cells [14] was 4.05 µg/mL, the IC50, titer in TZM.bl cells [15] was 1.96 µg/mL and the IC80, titer in TZM.bl cells [15] was > 10 µg/mL. It also gave an IC50, titer in TZM.bl cells [16] of 0.609 µg/mL, an IC80, titer in TZM.bl cells [16] of 3.72 µg/mL and an IC50, titer in TZM.bl cells [17] of 0.747 µg/mL. The IC80, titer in TZM.bl cells [17] was > 10 µg/mL, the IC50, titer in TZM.bl cells [18] was 3.52 µg/mL and the IC80, titer in TZM.bl cells [18] was > 10 µg/mL. The IC50, titer in TZM.bl cells [19] was 1.56 µg/mL, the IC80, titer in TZM.bl cells [19] was 9.84 µg/mL and the IC50, titer in TZM.bl cells [20] was 0.475 µg/mL. The IC80, titer in TZM.bl cells [20] was 4.78 µg/mL, the IC50, titer in TZM.bl cells [21] was 1.16 µg/mL and the IC80, titer in TZM.bl cells [21] was 6.76 µg/mL. For the same substance, the IC50, titer in TZM.bl cells [22] was 0.148 µg/mL, the IC80, titer in TZM.bl cells [22] was 0.802 µg/mL and the IC50, titer in TZM.bl cells [23] was 2.69 µg/mL. The IC80, titer in TZM.bl cells [23] was > 10 µg/mL.
